Test results published in patent publication US20170283834A1, “Processes for Producing A Fermentation Product Using A Fermenting Organism” (Novozymes A/S, priority 2014, published 2017).

Legend:
Assay type in all cases: biochemical
azo-casein = test: Remaining activity assay of protease variants (azo-casein); details: pH 4.5, 4° C. as reference; for Remaining activity 84° C.: 10 min at 84° C.
Experimental: Yeast clones on SC-glucose were inoculated to a well of a 96-well micro titre plate and cultivated at 28° C. for 3 days. Protease activity was measured at 65° C. using azo-casein (Megazyme) after incubating the culture supernatant in 20 mM sodium acetate buffer, pH 4.5, for 10 min at a certain temperature (80° C. or 84° C. with 4° C. as a reference) to determine the remaining activity. The clones with higher remaining activity than the parental variant were selected and the sequence was determined.
20 microL of samples were mixed with 150 microL of substrate solution (4 ml of 12.5% azo-casein in ethanol in 96 ml of 20 mM sodium acetate, pH 4.5, containing 0.01% triton-100 and 0.25 mM ZnSO4) and incubated for 4 hours or longer.
After adding 20 microL/well of 100% trichloroacetic acid (TCA) solution, the plate was centrifuge and 100 microL of supernatants were pipette out to measure A440.

zein [1] = test: Zein-BCA assay, temperature profile of purified protease variants
Experimental: Selected variants showing good thermo-stability were purified and the purified enzymes were used in a zein-BCA assay as described below. The remaining protease activity was determined at 60° C. after incubation of the enzyme at elevated temperatures as indicated for 60 min.
Zein-BCA assay was performed to detect soluble protein quantification released from zein by variant proteases at various temperatures.
• 1) Mix 10 ul of 10 ug/ml enzyme solutions and 100 ul of 0.025% zein solution in a micro titer plate (MTP). • 2) Incubate at various temperatures for 60 min. • 3) Add 10 ul of 100% trichloroacetic acid (TCA) solution. • 4) Centrifuge MTP at 3500 rpm for 5 min. • 5) Take out 15 ul to a new MTP containing 100 ul of BCA assay solution (Pierce Cat#:23225, BCA Protein Assay Kit). • 6) Incubate for 30 min. at 60° C. • 7) Measure A562.

zein [2] = test: Relative activity assay of protease variants (zein micro titer plate); details: for Relative activity 75° C./65° C.: Table 3
In short: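 Relative activity is the ratio of zein clearance (A630 turbidity) at a higher versus lower temperature, e.g. 60/65 °C or 70/80 °C. Supernatants from 3-day yeast cultures applied to 0.05-0.1% zein agar in 20 mM sodium acetate pH 4.5 with zinc, incubated at least 4 h.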

[3] = Sample incubated 60 min at 60° C.
[4] = Sample incubated 60 min at 70° C.
[5] = Sample incubated 60 min at 75° C.
[6] = Sample incubated 60 min at 80° C.
[7] = Sample incubated 60 min at 85° C.
[8] = Sample incubated 60 min at 90° C.
[9] = Sample incubated 60 min at 95° C.

B1: JTP092: protease variant of SEQ ID NO: 3: ΔS5/N26R/D79L/S87P/A112P/D142L (protein, listed as Thermoascus aurantiacus)
chain: MRLVASLTALVALSVPVFPAAVNVKRASSYLEITLSQVSNTLIKAVVQNTGSDELSFVHLNFFKDPAPVKKVSVYRDGSEVQFEGILSRYKSTGLSRDAFTYLAPGESVEDVFDIASTYDLTSGGPVTIRTEGVVPYATANSTDIAGYISYSSNVLTIDVDGAAAATVSKAITPLDRRTRISCSGSRQSALTTALRNAASLARAAADAAQSGSASKFSEYFKTTSSSTRQTVAARLRAVAREASSSSSGATTYYCLDPYGYCSPNVLAYTLPSYNIIANCDIFYTYLPPLTSTCHAQDQATTALHEFTHAPGVYSPGTLDLAYGYQAAMGLSSSQAVMNADTYALYANAIYLGC
- Remaining activity 84° C. (azo-casein): 60%

B2: JTP050: protease variant of SEQ ID NO: 3: D79L/S87P/A112P/D142L (protein, listed as Thermoascus aurantiacus)
chain: MRLVASLTALVALSVPVFPAAVNVKRASSYLEITLSQVSNTLIKAVVQNTGSDELSFVHLNFFKDPAPVKKVSVYRDGSEVQFEGILSRYKSTGLSRDAFTYLAPGESVEDVFDIASTYDLTSGGPVTIRTEGVVPYATANSTDIAGYISYSSNVLTIDVDGAAAATVSKAITPLDRRTRISSCSGSRQSALTTALRNAASLANAAADAAQSGSASKFSEYFKTTSSSTRQTVAARLRAVAREASSSSSGATTYYCLDPYGYCSPNVLAYTLPSYNIIANCDIFYTYLPPLTSTCHAQDQATTALHEFTHAPGVYSPGTLDLAYGYQAAMGLSSSQAVMNADTYALYANAIYLGC
- Bovine serum albumin equivalent peptide released (zein [1]; [3]): 86 µg/mL
- Bovine serum albumin equivalent peptide released (zein [1]; [4]): 101 µg/mL
- Bovine serum albumin equivalent peptide released (zein [1]; [5]): 107 µg/mL
- Bovine serum albumin equivalent peptide released (zein [1]; [6]): 107 µg/mL
- Bovine serum albumin equivalent peptide released (zein [1]; [7]): 104 µg/mL
- Bovine serum albumin equivalent peptide released (zein [1]; [8]): 63 µg/mL
- Bovine serum albumin equivalent peptide released (zein [1]; [9]): 36 µg/mL
- Relative activity 75° C./65° C. (zein [2]): 88%
- Relative activity 75° C./70° C. (zein [2]; Table 5, upper part): 55%
- Relative activity 80° C./70° C. (zein [2]; Table 5, upper part): 23%
- Relative activity 85° C./70° C. (zein [2]; Table 5, upper part): 9%

B3: JTP099: protease variant of SEQ ID NO: 3: D79L/P81R/S87P/A112P/D142L (protein, listed as Thermoascus aurantiacus)
chain: MRLVASLTALVALSVPVFPAAVNVKRASSYLEITLSQVSNTLIKAVVQNTGSDELSFVHLNFFKDPAPVKKVSVYRDGSEVQFEGILSRYKSTGLSRDAFTYLAPGESVEDVFDIASTYDLTSGGPVTIRTEGVVPYATANSTDIAGYISYSSNVLTIDVDGAAAATVSKAITPLDRRTRISSCSGSRQSALTTALRNAASLANAAADAAQSGSASKFSEYFKTTSSSTRQTVAARLRAVAREASSSSSGATTYYCLDRYGYCSPNVLAYTLPSYNIIANCDIFYTYLPPLTSTCHAQDQATTALHEFTHAPGVYSPGTLDLAYGYQAAMGLSSSQAVMNADTYALYANAIYLGC
- Remaining activity 84° C. (azo-casein): 80%

B4: JTP196: protease variant of SEQ ID NO: 3: A27K D79L Y82F S87G D104P A112P A126V D142L (protein, listed as Thermoascus aurantiacus)
chain: MRLVASLTALVALSVPVFPAAVNVKRASSYLEITLSQVSNTLIKAVVQNTGSDELSFVHLNFFKDPAPVKKVSVYRDGSEVQFEGILSRYKSTGLSRDAFTYLAPGESVEDVFDIASTYDLTSGGPVTIRTEGVVPYATANSTDIAGYISYSSNVLTIDVDGAAAATVSKAITPLDRRTRISSCSGSRQSALTTALRNAASLANKAADAAQSGSASKFSEYFKTTSSSTRQTVAARLRAVAREASSSSSGATTYYCLDPFGYCSGNVLAYTLPSYNIIANCPIFYTYLPPLTSTCHAQDQATTVLHEFTHAPGVYSPGTLDLAYGYQAAMGLSSSQAVMNADTYALYANAIYLGC
- Bovine serum albumin equivalent peptide released (zein [1]; [3]): 87 µg/mL
- Bovine serum albumin equivalent peptide released (zein [1]; [4]): 99 µg/mL
- Bovine serum albumin equivalent peptide released (zein [1]; [5]): 103 µg/mL
- Bovine serum albumin equivalent peptide released (zein [1]; [6]): 106 µg/mL
- Bovine serum albumin equivalent peptide released (zein [1]; [7]): 117 µg/mL
- Bovine serum albumin equivalent peptide released (zein [1]; [8]): 90 µg/mL
- Bovine serum albumin equivalent peptide released (zein [1]; [9]): 38 µg/mL
- Relative activity 75° C./70° C. (zein [2]; Table 5, lower part): 102%
- Relative activity 80° C./70° C. (zein [2]; Table 5, lower part): 55%
- Relative activity 85° C./70° C. (zein [2]; Table 5, upper part): 18%

B5: JTP101: protease variant of SEQ ID NO: 3: A27K/D79L/S87P/A112P/T124V/D142L (protein, listed as Thermoascus aurantiacus)
chain: MRLVASLTALVALSVPVFPAAVNVKRASSYLEITLSQVSNTLIKAVVQNTGSDELSFVHLNFFKDPAPVKKVSVYRDGSEVQFEGILSRYKSTGLSRDAFTYLAPGESVEDVFDIASTYDLTSGGPVTIRTEGVVPYATANSTDIAGYISYSSNVLTIDVDGAAAATVSKAITPLDRRTRISSCSGSRQSALTTALRNAASLANKAADAAQSGSASKFSEYFKTTSSSTRQTVAARLRAVAREASSSSSGATTYYCLDPYGYCSPNVLAYTLPSYNIIANCDIFYTYLPPLTSTCHAQDQAVTALHEFTHAPGVYSPGTLDLAYGYQAAMGLSSSQAVMNADTYALYANAIYLGC
- Remaining activity 80° C. (azo-casein; 10 min at 80° C.): 81%

B6: JTP188: protease variant of SEQ ID NO: 3: D79L Y82F S87G D104P A112P D142L (protein, listed as Thermoascus aurantiacus)
chain: MRLVASLTALVALSVPVFPAAVNVKRASSYLEITLSQVSNTLIKAVVQNTGSDELSFVHLNFFKDPAPVKKVSVYRDGSEVQFEGILSRYKSTGLSRDAFTYLAPGESVEDVFDIASTYDLTSGGPVTIRTEGVVPYATANSTDIAGYISYSSNVLTIDVDGAAAATVSKAITPLDRRTRISSCSGSRQSALTTALRNAASLANAAADAAQSGSASKFSEYFKTTSSSTRQTVAARLRAVAREASSSSSGATTYYCLDPFGYCSGNVLAYTLPSYNIIANCPIFYTYLPPLTSTCHAQDQATTALHEFTHAPGVYSPGTLDLAYGYQAAMGLSSSQAVMNADTYALYANAIYLGC
- Bovine serum albumin equivalent peptide released (zein [1]; [3]): 71 µg/mL
- Bovine serum albumin equivalent peptide released (zein [1]; [4]): 83 µg/mL
- Bovine serum albumin equivalent peptide released (zein [1]; [5]): 86 µg/mL
- Bovine serum albumin equivalent peptide released (zein [1]; [6]): 93 µg/mL
- Bovine serum albumin equivalent peptide released (zein [1]; [7]): 100 µg/mL
- Bovine serum albumin equivalent peptide released (zein [1]; [8]): 75 µg/mL
- Bovine serum albumin equivalent peptide released (zein [1]; [9]): 53 µg/mL
- Relative activity 80° C./70° C. (zein [2]; Table 5, upper part): 43%

B7: JTP095: protease variant of SEQ ID NO: 3: N26R/T46R/D79L/S87P/A112P/D142L (protein, listed as Thermoascus aurantiacus)
chain: MRLVASLTALVALSVPVFPAAVNVKRASSYLEITLSQVSNTLIKAVVQNTGSDELSFVHLNFFKDPAPVKKVSVYRDGSEVQFEGILSRYKSTGLSRDAFTYLAPGESVEDVFDIASTYDLTSGGPVTIRTEGVVPYATANSTDIAGYISYSSNVLTIDVDGAAAATVSKAITPLDRRTRISSCSGSRQSALTTALRNAASLARAAADAAQSGSASKFSEYFKRTSSSTRQTVAARLRAVAREASSSSSGATTYYCLDPYGYCSPNVLAYTLPSYNIIANCDIFYTYLPPLTSTCHAQDQATTALHEFTHAPGVYSPGTLDLAYGYQAAMGLSSSQAVMNADTYALYANAIYLGC
- Remaining activity 84° C. (azo-casein): 62%

B8: JTP096: protease variant of SEQ ID NO: 3: T46R/D79L/S87P/T116V/D142L (protein, listed as Thermoascus aurantiacus)
chain: MRLVASLTALVALSVPVFPAAVNVKRASSYLEITLSQVSNTLIKAVVQNTGSDELSFVHLNFFKDPAPVKKVSVYRDGSEVQFEGILSRYKSTGLSRDAFTYLAPGESVEDVFDIASTYDLTSGGPVTIRTEGVVPYATANSTDIAGYISYSSNVLTIDVDGAAAATVSKAITPLDRRTRISSCSGSRQSALTTALRNAASLANAAADAAQSGSASKFSEYFKRTSSSTRQTVAARLRAVAREASSSSSGATTYYCLDPYGYCSPNVLAYTLPSYNIIANCDIFYTYLPALTSVCHAQDQATTALHEFTHAPGVYSPGTLDLAYGYQAAMGLSSSQAVMNADTYALYANAIYLGC
- Remaining activity 84° C. (azo-casein): 67%

B9: JTP077: protease variant of SEQ ID NO: 3: A27K/D79L/S87P/A112P/D142L (protein, listed as Thermoascus aurantiacus)
chain: MRLVASLTALVALSVPVFPAAVNVKRASSYLEITLSQVSNTLIKAVVQNTGSDELSFVHLNFFKDPAPVKKVSVYRDGSEVQFEGILSRYKSTGLSRDAFTYLAPGESVEDVFDIASTYDLTSGGPVTIRTEGVVPYATANSTDIAGYISYSSNVLTIDVDGAAAATVSKAITPLDRRTRISSCSGSRQSALTTALRNAASLANKAADAAQSGSASKFSEYFKTTSSSTRQTVAARLRAVAREASSSSSGATTYYCLDPYGYCSPNVLAYTLPSYNIIANCDIFYTYLPPLTSTCHAQDQATTALHEFTHAPGVYSPGTLDLAYGYQAAMGLSSSQAVMNADTYALYANAIYLGC
- Bovine serum albumin equivalent peptide released (zein [1]; [3]): 82 µg/mL
- Bovine serum albumin equivalent peptide released (zein [1]; [4]): 94 µg/mL
- Bovine serum albumin equivalent peptide released (zein [1]; [5]): 104 µg/mL
- Bovine serum albumin equivalent peptide released (zein [1]; [6]): 105 µg/mL
- Bovine serum albumin equivalent peptide released (zein [1]; [7]): 99 µg/mL
- Bovine serum albumin equivalent peptide released (zein [1]; [8]): 56 µg/mL
- Bovine serum albumin equivalent peptide released (zein [1]; [9]): 31 µg/mL
- Relative activity 75° C./65° C. (zein [2]): 106%
